Reference: patent US20220204580A1 (AstraZeneca / MedImmune, published 2022)
Numbered stars: 1 amine (or outer) side, 2 acyl side, 3 side chain; on linkers, the order of the positions; unused ones are H or OH. Bridge positions count the residues as written; N and C are the ends. Square brackets hold non-standard residues; d marks the D form. Side chains are listed from the residue outwards. Ends that are not written are not given here. * marks the point of attachment. C18 diacid = O=C(O)CCCCCCCCCCCCCCCCC(=O)*; γGlu = O=C(O)[C@H](CCC(=O)[*:2])N[*:1]; Aib = CC(C)(N)C(=O)O

T1: human amylin receptor (calcitonin receptor co-expressed with receptor activity modifying protein, RAMP3) (human, UniProt P30988 25-474; O60896 24-148)
T1 sequence (looked up) 1: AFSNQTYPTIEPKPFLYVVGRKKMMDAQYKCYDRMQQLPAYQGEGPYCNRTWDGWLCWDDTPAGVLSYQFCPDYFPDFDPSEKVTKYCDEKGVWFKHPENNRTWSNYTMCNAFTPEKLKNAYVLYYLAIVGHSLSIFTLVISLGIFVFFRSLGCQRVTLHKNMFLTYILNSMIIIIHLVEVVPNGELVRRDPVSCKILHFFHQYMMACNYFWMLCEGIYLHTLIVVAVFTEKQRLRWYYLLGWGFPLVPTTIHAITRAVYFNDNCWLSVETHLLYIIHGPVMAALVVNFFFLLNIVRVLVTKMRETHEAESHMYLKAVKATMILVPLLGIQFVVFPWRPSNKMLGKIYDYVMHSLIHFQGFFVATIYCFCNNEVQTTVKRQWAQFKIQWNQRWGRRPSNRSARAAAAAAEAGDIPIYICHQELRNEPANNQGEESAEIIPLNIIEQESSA
T1 sequence (looked up) 2: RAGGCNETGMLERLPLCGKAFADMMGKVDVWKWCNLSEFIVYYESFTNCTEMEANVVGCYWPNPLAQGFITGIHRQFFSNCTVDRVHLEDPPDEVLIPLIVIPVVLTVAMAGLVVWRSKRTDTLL

T2: human calcitonin receptor (human, UniProt P30988 25-474)
T2 sequence (looked up): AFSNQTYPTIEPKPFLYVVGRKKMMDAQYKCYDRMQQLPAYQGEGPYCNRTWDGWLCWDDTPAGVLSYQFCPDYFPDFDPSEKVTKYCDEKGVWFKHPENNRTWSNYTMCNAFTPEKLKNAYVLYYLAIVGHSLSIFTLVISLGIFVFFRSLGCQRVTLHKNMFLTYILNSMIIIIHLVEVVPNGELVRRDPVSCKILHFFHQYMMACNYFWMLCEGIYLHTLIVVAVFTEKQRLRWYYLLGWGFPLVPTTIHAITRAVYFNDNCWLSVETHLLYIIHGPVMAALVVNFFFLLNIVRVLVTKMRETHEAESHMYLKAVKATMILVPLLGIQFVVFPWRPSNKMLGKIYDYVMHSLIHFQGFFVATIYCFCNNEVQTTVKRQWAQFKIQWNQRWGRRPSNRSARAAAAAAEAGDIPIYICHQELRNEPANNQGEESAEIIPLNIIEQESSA


Columns and labels:
[1] = target: T1, human amylin receptor (calcitonin …); test: cell-based or functional assay
[2] = target: T2, human calcitonin receptor; test: cell-based or functional assay

Binder | EC50 (cAMP production) [1] [nM] | Ratio (EC50 hCTR / EC50 hAMYR3) [1] | EC50 (cAMP production) [2] [nM]
K([γGlu-C18 diacid])KCNTATCATQRLANFLRHSS[Aib]NFGPILPPTNVGSNTY-NH2 (disulfide 3-8; N-terminus assumed; SMILES CC[C@H](C)[C@H](NC(=O)[C@@H]1CCCN1C(=O)CNC(=O)[C@H](Cc1ccccc1)NC(=O)[C@H](CC(N)=O)NC(=O)C(C)(C)NC(=O)[C@H](CO)NC(=O)[C@H](CO)NC(=O)[C@H](Cc1c[nH]cn1)NC(=O)[C@H](CCCNC(=N)N)NC(=O)[C@H](CC(C)C)NC(=O)[C@H](Cc1ccccc1)NC(=O)[C@H](CC(N)=O)NC(=O)[C@H](C)NC(=O)[C@H](CC(C)C)NC(=O)[C@H](CCCNC(=N)N)NC(=O)[C@H](CCC(N)=O)NC(=O)[C@@H](NC(=O)[C@H](C)NC(=O)[C@@H]1CSSC[C@H](NC(=O)[C@H](CCCCN)NC(=O)[C@@H](N)CCCCNC(=O)CC[C@H](NC(=O)CCCCCCCCCCCCCCCCC(=O)O)C(=O)O)C(=O)N[C@@H](CC(N)=O)C(=O)N[C@@H]([C@@H](C)O)C(=O)N[C@@H](C)C(=O)N[C@@H]([C@@H](C)O)C(=O)N1)[C@@H](C)O)C(=O)N[C@@H](CC(C)C)C(=O)N1CCC[C@H]1C(=O)N1CCC[C@H]1C(=O)N[C@H](C(=O)N[C@@H](CC(N)=O)C(=O)N[C@H](C(=O)NCC(=O)N[C@@H](CO)C(=O)N[C@@H](CC(N)=O)C(=O)N[C@H](C(=O)N[C@@H](Cc1ccc(O)cc1)C(N)=O)[C@@H](C)O)C(C)C)[C@@H](C)O) [Peptide 65 (SEQ ID NO: 65)] | 0.207 | 31 | 6.4
K([γGlu-γGlu-C18 diacid])KCNTATCATQRLANFLRHSS[Aib]NFGPILPPTNVGSNTY-NH2 (disulfide 3-8; N-terminus assumed; SMILES CC[C@H](C)[C@H](NC(=O)[C@@H]1CCCN1C(=O)CNC(=O)[C@H](Cc1ccccc1)NC(=O)[C@H](CC(N)=O)NC(=O)C(C)(C)NC(=O)[C@H](CO)NC(=O)[C@H](CO)NC(=O)[C@H](Cc1c[nH]cn1)NC(=O)[C@H](CCCNC(=N)N)NC(=O)[C@H](CC(C)C)NC(=O)[C@H](Cc1ccccc1)NC(=O)[C@H](CC(N)=O)NC(=O)[C@H](C)NC(=O)[C@H](CC(C)C)NC(=O)[C@H](CCCNC(=N)N)NC(=O)[C@H](CCC(N)=O)NC(=O)[C@@H](NC(=O)[C@H](C)NC(=O)[C@@H]1CSSC[C@H](NC(=O)[C@H](CCCCN)NC(=O)[C@@H](N)CCCCNC(=O)CC[C@H](NC(=O)CC[C@H](NC(=O)CCCCCCCCCCCCCCCCC(=O)O)C(=O)O)C(=O)O)C(=O)N[C@@H](CC(N)=O)C(=O)N[C@@H]([C@@H](C)O)C(=O)N[C@@H](C)C(=O)N[C@@H]([C@@H](C)O)C(=O)N1)[C@@H](C)O)C(=O)N[C@@H](CC(C)C)C(=O)N1CCC[C@H]1C(=O)N1CCC[C@H]1C(=O)N[C@H](C(=O)N[C@@H](CC(N)=O)C(=O)N[C@H](C(=O)NCC(=O)N[C@@H](CO)C(=O)N[C@@H](CC(N)=O)C(=O)N[C@H](C(=O)N[C@@H](Cc1ccc(O)cc1)C(N)=O)[C@@H](C)O)C(C)C)[C@@H](C)O) [Peptide 66 (SEQ ID NO: 66)] | 0.418 | 17 | 7.01
K([γGlu-γGlu-C18 diacid])CNTATCATQRLANFLVHSS[Aib]NFGPILPPTRVGSNTY-NH2 (disulfide 2-7; N-terminus assumed; SMILES CC[C@H](C)[C@H](NC(=O)[C@@H]1CCCN1C(=O)CNC(=O)[C@H](Cc1ccccc1)NC(=O)[C@H](CC(N)=O)NC(=O)C(C)(C)NC(=O)[C@H](CO)NC(=O)[C@H](CO)NC(=O)[C@H](Cc1c[nH]cn1)NC(=O)[C@@H](NC(=O)[C@H](CC(C)C)NC(=O)[C@H](Cc1ccccc1)NC(=O)[C@H](CC(N)=O)NC(=O)[C@H](C)NC(=O)[C@H](CC(C)C)NC(=O)[C@H](CCCNC(=N)N)NC(=O)[C@H](CCC(N)=O)NC(=O)[C@@H](NC(=O)[C@H](C)NC(=O)[C@@H]1CSSC[C@H](NC(=O)[C@@H](N)CCCCNC(=O)CC[C@H](NC(=O)CC[C@H](NC(=O)CCCCCCCCCCCCCCCCC(=O)O)C(=O)O)C(=O)O)C(=O)N[C@@H](CC(N)=O)C(=O)N[C@@H]([C@@H](C)O)C(=O)N[C@@H](C)C(=O)N[C@@H]([C@@H](C)O)C(=O)N1)[C@@H](C)O)C(C)C)C(=O)N[C@@H](CC(C)C)C(=O)N1CCC[C@H]1C(=O)N1CCC[C@H]1C(=O)N[C@H](C(=O)N[C@@H](CCCNC(=N)N)C(=O)N[C@H](C(=O)NCC(=O)N[C@@H](CO)C(=O)N[C@@H](CC(N)=O)C(=O)N[C@H](C(=O)N[C@@H](Cc1ccc(O)cc1)C(N)=O)[C@@H](C)O)C(C)C)[C@@H](C)O) [Peptide 67 (SEQ ID NO: 67)] | 0.132 | 30 | 4.01
{C18 diacid-γGlu}-CNTATCATQRLANFLVHSS[Aib]NFGPILPPTRVGSNTY-NH2 (disulfide 1-6; SMILES CC[C@H](C)[C@H](NC(=O)[C@@H]1CCCN1C(=O)CNC(=O)[C@H](Cc1ccccc1)NC(=O)[C@H](CC(N)=O)NC(=O)C(C)(C)NC(=O)[C@H](CO)NC(=O)[C@H](CO)NC(=O)[C@H](Cc1c[nH]cn1)NC(=O)[C@@H](NC(=O)[C@H](CC(C)C)NC(=O)[C@H](Cc1ccccc1)NC(=O)[C@H](CC(N)=O)NC(=O)[C@H](C)NC(=O)[C@H](CC(C)C)NC(=O)[C@H](CCCNC(=N)N)NC(=O)[C@H](CCC(N)=O)NC(=O)[C@@H](NC(=O)[C@H](C)NC(=O)[C@@H]1CSSC[C@H](NC(=O)CC[C@H](NC(=O)CCCCCCCCCCCCCCCCC(=O)O)C(=O)O)C(=O)N[C@@H](CC(N)=O)C(=O)N[C@@H]([C@@H](C)O)C(=O)N[C@@H](C)C(=O)N[C@@H]([C@@H](C)O)C(=O)N1)[C@@H](C)O)C(C)C)C(=O)N[C@@H](CC(C)C)C(=O)N1CCC[C@H]1C(=O)N1CCC[C@H]1C(=O)N[C@H](C(=O)N[C@@H](CCCNC(=N)N)C(=O)N[C@H](C(=O)NCC(=O)N[C@@H](CO)C(=O)N[C@@H](CC(N)=O)C(=O)N[C@H](C(=O)N[C@@H](Cc1ccc(O)cc1)C(N)=O)[C@@H](C)O)C(C)C)[C@@H](C)O) [Peptide 68 (SEQ ID NO: 68)] | 0.192 | 9 | 1.77
K([γGlu-C18 diacid])KCNTATCATQRLANFLVHSS[Aib]NFGPILPPTRVGSNTY-NH2 (disulfide 3-8; N-terminus assumed; SMILES CC[C@H](C)[C@H](NC(=O)[C@@H]1CCCN1C(=O)CNC(=O)[C@H](Cc1ccccc1)NC(=O)[C@H](CC(N)=O)NC(=O)C(C)(C)NC(=O)[C@H](CO)NC(=O)[C@H](CO)NC(=O)[C@H](Cc1c[nH]cn1)NC(=O)[C@@H](NC(=O)[C@H](CC(C)C)NC(=O)[C@H](Cc1ccccc1)NC(=O)[C@H](CC(N)=O)NC(=O)[C@H](C)NC(=O)[C@H](CC(C)C)NC(=O)[C@H](CCCNC(=N)N)NC(=O)[C@H](CCC(N)=O)NC(=O)[C@@H](NC(=O)[C@H](C)NC(=O)[C@@H]1CSSC[C@H](NC(=O)[C@H](CCCCN)NC(=O)[C@@H](N)CCCCNC(=O)CC[C@H](NC(=O)CCCCCCCCCCCCCCCCC(=O)O)C(=O)O)C(=O)N[C@@H](CC(N)=O)C(=O)N[C@@H]([C@@H](C)O)C(=O)N[C@@H](C)C(=O)N[C@@H]([C@@H](C)O)C(=O)N1)[C@@H](C)O)C(C)C)C(=O)N[C@@H](CC(C)C)C(=O)N1CCC[C@H]1C(=O)N1CCC[C@H]1C(=O)N[C@H](C(=O)N[C@@H](CCCNC(=N)N)C(=O)N[C@H](C(=O)NCC(=O)N[C@@H](CO)C(=O)N[C@@H](CC(N)=O)C(=O)N[C@H](C(=O)N[C@@H](Cc1ccc(O)cc1)C(N)=O)[C@@H](C)O)C(C)C)[C@@H](C)O) [Peptide 69 (SEQ ID NO: 69)] | 0.164 | 10 | 1.57
K([γGlu-γGlu-C18 diacid])KCNTATCATQRLANFLVHSS[Aib]NFGPILPPTRVGSNTY-NH2 (disulfide 3-8; N-terminus assumed; SMILES CC[C@H](C)[C@H](NC(=O)[C@@H]1CCCN1C(=O)CNC(=O)[C@H](Cc1ccccc1)NC(=O)[C@H](CC(N)=O)NC(=O)C(C)(C)NC(=O)[C@H](CO)NC(=O)[C@H](CO)NC(=O)[C@H](Cc1c[nH]cn1)NC(=O)[C@@H](NC(=O)[C@H](CC(C)C)NC(=O)[C@H](Cc1ccccc1)NC(=O)[C@H](CC(N)=O)NC(=O)[C@H](C)NC(=O)[C@H](CC(C)C)NC(=O)[C@H](CCCNC(=N)N)NC(=O)[C@H](CCC(N)=O)NC(=O)[C@@H](NC(=O)[C@H](C)NC(=O)[C@@H]1CSSC[C@H](NC(=O)[C@H](CCCCN)NC(=O)[C@@H](N)CCCCNC(=O)CC[C@H](NC(=O)CC[C@H](NC(=O)CCCCCCCCCCCCCCCCC(=O)O)C(=O)O)C(=O)O)C(=O)N[C@@H](CC(N)=O)C(=O)N[C@@H]([C@@H](C)O)C(=O)N[C@@H](C)C(=O)N[C@@H]([C@@H](C)O)C(=O)N1)[C@@H](C)O)C(C)C)C(=O)N[C@@H](CC(C)C)C(=O)N1CCC[C@H]1C(=O)N1CCC[C@H]1C(=O)N[C@H](C(=O)N[C@@H](CCCNC(=N)N)C(=O)N[C@H](C(=O)NCC(=O)N[C@@H](CO)C(=O)N[C@@H](CC(N)=O)C(=O)N[C@H](C(=O)N[C@@H](Cc1ccc(O)cc1)C(N)=O)[C@@H](C)O)C(C)C)[C@@H](C)O) [Peptide 70 (SEQ ID NO: 70)] | 0.235 | 23 | 5.41
